The assay deals with IRAK1. Briefly: In vitro phosphorylation by IRAK1 immunoprecipitated from IL-33 stimulated cells. It is filed as biochemical. The following applies: IRAK1 IPed from IL-33 stimulated cells, γP32 ATP, autoradiography. The text has this:
Suppl em enta ry Figur e 2.
Supplementary Figure 2. IRAK-M DD structure modeling analysis and phosphorylation by IRAK1.
(a) Overlaid 1H-15N HSQC spectra of the 15N-labeled Pin1 WW domain showing changes in chemical environment resulting from titration with the phosphorylated IRAK-M peptide. Overlaid spectra of apo (red) and increasing amounts of ligand (rainbow of colors, with purple as highest ligand concentration) show progressive peak shifts. (b) Interaction between IRAK-M DD and IRAK1 DD from Figure 3f. Cyan: IRAK1 DDs, Yellow: IRAK-M DD. (c) The aromatic residues interaction between IRAK-M DD and IRAK4 DD from Figure 3f. Green: IRAK4 DDs, Yellow: IRAK-M DD. (d) IRAK-M or its mutants as described, were expressed in 293 cells or 293 IRAK1null cells expressing the ST2 receptor and treated with IL-33. The phosphorylation is shown by the slow migrating bands. (e) WT or Pin KO cells were treated with IL-33 and IRAK1 phosphorylation was monitored at different time after stimulation. (f) DC2.4 cells were either treated or not with IL-33. IRAK1 was IP’d and incubated with GST-IRAK-M aa1-120 in the presence of ΓP32ATP.
The beads were washed and GST-IRAK-M was eluted and run for autoradiography. […]

B1: GST-IRAK-M: purified GST-IRAK-M containing amino acids 1-120 (protein, UniProt Q8K4B2 1-120, looked up, fragment)
chain: MAGRCGARGALSPQLLLFDLPPALLGELCGILDSCDGPLGWRGLAERLSNSWLDVRHIEKYVNQGKSGTRELLWSWAQKNKTIGDLLEVLQDMGHQRAIHLIINYGVSWTPSVQTHHELP
modifications: GST tag
In the case of B1, the “phosphorylation by IRAK1” value is “phosphorylated WT IRAK-M”.

These data come from article PMC5913134, “The IL-33-PIN1-IRAK-M axis is critical for type 2 immunity in IL-33-induced allergic airway inflammation” (Nature Communications, 2018).
